Tests used:
[1] = target: T1, native, full-length VZV gB purified from VZV infected MeWo cells (varicella-zoster virus (parental Oka …, UniProt Q4JR05, N-linked glycosylation (sites in S4 Table))); test: cryo-EM structure; Fab fragments added in molar excess to native, full-length gB in TBS pH7.4 with Amphipol 8-35, overnight at +4°C; complexes purified on Superose-6 in TBS pH7.4; 200kV F20 microscope; conditions: both partners purified
T1 construct: VZV glycoprotein B (ORF31), parental Oka strain, residues up to 931; 71-residue signal peptide; native gB is cleaved by furin at 491RSRR494 into two fragments; residues 115-736 resolved in the cryo-EM structure; Held in Amphipol 8-35; also called glycoprotein B; native, full-length gB; not shown: V5, C-terminal, cleaved

[2] = target: T2, VZV gB wild type expressed from pCAGGS-gB in CHO-DSP1 cells (varicella-zoster virus, UniProt Q4JR05); test: western blot; reducing, denaturing SDS-PAGE of anti-V5 immunoprecipitates from transfected CHO-DSP1 cells, blot probed with mAb 93k; conditions: one partner purified
T2 construct: VZV glycoprotein B (ORF31) expressed from pCAGGS-gB; detected by an antiserum to residues 833-846 of the cytoplasmic region; also called WT gB; gB-WT; source: CHO-DSP1, transfected (pCAGGS-gB), in lysate; also on fixed transfected cells

[3] = target: the molecule itself; test: cryo-EM structure; native, full-length gB without antibody, in Amphipol 8-35, TBS pH7.4; 300kV Titan Krios; C3 symmetry imposed
[4] = target: the molecule itself; test: crystal structure; gB ectodomain; 0.1 M Na acetate pH 4.6, 20% PEG 400, 6% ethylene glycol, room temperature vapor diffusion

B1: Fab fragment of the neutralizing human mAb 93k (Fab, V domains shown)
VH: QVQLVQSGAEVKKPGSSVKVSCKASGGTFSNFAISWVRQAPGQGLEWMGRIMPLFVTSTYAQKFQGRVTISADASTSTAYMELSSLRSDDTAMYYCARDITAPGAAPTPLNFYGMDVWGQGTTVTVSS
VL: DIQMTQSPSTLSASVGDRVTITCRASQTISTWLAWYQQTPRKAPKLMIYKASILENGVPSRFSGSGSGTEFTLTISSLQPEDFATYYCQQYKSYPWTFGQGTKVEI
notes: map of gB-93k deposited here as EMD-22519; I53 of the VL chain is named; also called 93k Fab
[1]
  binding result: binds

B2: human neutralizing monoclonal antibody 93k (antibody, V domains shown)
VH: QVQLVQSGAEVKKPGSSVKVSCKASGGTFSNFAISWVRQAPGQGLEWMGRIMPLFVTSTYAQKFQGRVTISADASTSTAYMELSSLRSDDTAMYYCARDITAPGAAPTPLNFYGMDVWGQGTTVTVSS
VL: DIQMTQSPSTLSASVGDRVTITCRASQTISTWLAWYQQTPRKAPKLMIYKASILENGVPSRFSGSGSGTEFTLTISSLQPEDFATYYCQQYKSYPWTFGQGTKVEI
notes: variable part as the heavy chain of m12; as the light chain of m12; Human IgG (detected with anti-human IgG); also called mAb 93k
[2]
  binding result: binds

B3: native, full-length VZV gB purified from VZV infected MeWo cells (natural protein)
chain: VSPSSFYESLQVEPTQSEDITRSAHLGDGDEIREAIHKSQDAETKPTFYVCPPPTGSTIVRLEPPRTCPDYHLGKNFTEGIAVVYKENIAAYKFKATVYYKDVIVSTAWAGSSYTQITNRYADRVPIPVSEITDTIDKFGKCSSKATYVRNNHKVEAFNEDKNPQDMPLIASKYNSVGSKAWHTTNDTYMVAGTPGTYRTGTSVNCIIEEVEARSIFPYDSFGLSTGDIIYMSPFFGLRDGAYREHSNYAMDRFHQFEGYRQRDLDTRALLEPAARNFLVTPHLTVGWNWKPKRTEVCSLVKWREVEDVVRDEYAHNFRFTMKTLSTTFISETNEFNLNQIHLSQCVKEEARAIINRIYTTRYNSSHVRTGDIQTYLARGGFVVVFQPLLSNSLARLYLQELVRENTNHSPQKHPTRNTRSRRSVPVELRANRTITTTSSVEFAMLQFTYDHIQEHVNEMLARISSSWCQLQNRERALWSGLFPINPSALASTILDQRVKARILGDVISVSNCPELGSDTRIILQNSMRVSGSTTRCYSRPLISIVSLNGSGTVEGQLGTDNELIMSRDLLEPCVANHKRYFLFGHHYVYYEDYRYVREIAVHDVGMISTYVDLNLTLLKDREFMPLQVYTRDELRDTGLLDYSEIQRRNQMHSLRFYDIDKVVQYDSGTAIMQGMAQFFQGLGTAGQAVGHVVLGATGALLSTVHGFTTFLSNPFGALAVGLLVLAGLVAAFFAYRYVLKLKTSPMKALYPLTTKGLKQLPEGMDPFAEKPNATDTPIEEIGDSQNTEPSVNSGFDPDKFREAQEMIKYMTLVSAAERQESKARKKNKTSALLTSRLTGLALRNRRGYSRVRTENVTGV
modifications: N-linked glycosylation (sites in S4 Table)
notes: VZV glycoprotein B (ORF31), parental Oka strain, residues up to 931; 71-residue signal peptide; native gB is cleaved by furin at 491RSRR494 into two fragments; residues 115-736 resolved in the cryo-EM structure; Held in Amphipol 8-35; also called glycoprotein B; native, full-length gB; not shown: V5, C-terminal, cleaved
[3]
  stoichiometry N: 3

B4: VZV gB ectodomain used for X-ray crystallography (domain or fragment, varicella-zoster virus (Oka strain), UniProt Q4JR05 72-736, looked up)
chain: VSPSSFYESLQVEPTQSEDITRSAHLGDGDEIREAIHKSQDAETKPTFYVCPPPTGSTIVRLEPPRTCPDYHLGKNFTEGIAVVYKENIAAYKFKATVYYKDVIVSTAGAGSSGTQITNRYADRVPIPVSEITDTIDKFGKCSSKATYVRNNHKVEAFNEDKNPQDMPLIASKYNSVGSKAWHTTNDTYMVAGTPGTYRTGTSVNCIIEEVEARSIFPYDSFGLSTGDIIYMSPFFGLRDGAYREHSNYAMDRFHQFEGYRQRDLDTRALLEPAARNFLVTPHLTVGWNWKPKRTEVCSLVKWREVEDVVRDEYAHNFRFTMKTLSTTFISETNEFNLNQIHLSQCVKEEARAIINRIYTTRYNSSHVRTGDIQTYLARGGFVVVFQPLLSNSLARLYLQELVRENTNHSPQKHPTRNTGSGGSVPVELRANRTITTTSSVEFAMLQFTYDHIQEHVNEMLARISSSWCQLQNRERALWSGLFPINPSALASTILDQRVKARILGDVISVSNCPELGSDTRIILQNSMRVSGSTTRCYSRPLISIVSLNGSGTVEGQLGTDNELIMSRDLLEPCVANHKRYFLFGHHYVYYEDYRYVREIAVHDVGMISTYVDLNLTLLKDREFMPLQVYTRDELRDTGLLDYSEIQRRNQMHSLRFYDIDKVVQ
modifications: N-linked glycosylation (sites in S4 Table)
notes: VZV glycoprotein B (ORF31), Oka strain, codon-modified; residues 72-736, without the 71 amino acid signal peptide; residues 115-736 resolved in the crystal; also called truncated gB; truncated VZV gB; source: HEK293 GnTI- cells, transiently transfected (pCMV-III), purified (Ni-NTA, ion-exchange, Superdex 200)
[4]
  stoichiometry N: 3

From PMC7817050 (PLoS Pathogens, 2021)
